Data published in publication PMC7786333, “Integration of diverse DNA substrates by a casposase can be targeted to R-loops in vitro by its fusion to Cas9”.

Biological target: Casp-Cas9 (Aciduliprofundum boonei T469 / …, UniProt B5IAF4 1-404+=GGSGGSGGSGGSGGSGGSGGSGGS+Q99ZW2:1-1368, internal_change)
Assay: R-loop formation gel assay (deproteinised); sgran50; 5 mM EDTA; 25 mM Tris pH 7.5, 106 mM KCl, 50 ug/ml BSA, 5 mM EDTA, 2 mM DTT, 9% glycerol, 37 C; 150 nM protein, 300 nM sgRNA, 25 nM Cy5-dsran50, 75 nM unlabelled MW12 dsDNA competitor; 8% acrylamide TBE gel
Conditions: protein: recombinant, tags: His6, label: 5'-Cy5 on ssran50 strand (strand 2), blunt 50 bp DNA target plus sgRNA, PAM TGG

B1: sgran50 + dsran50 (mixed)
RNA: GGUAGACGAUUACAUUGCUACAGUUUUAGAGCUAGAAAUAGCAAGUUAAAAUAAGGCUAGUCCGUUAUCAACUUGAAAAAGUGGCACCGAGUCGGUGCUU
DNA 1: CAACGTCATAGACGATTACATTGCTACATGGAGCTGTCTAGAGGATCCGA
DNA 2: TCGGATCCTCTAGACAGCTCCATGTAGCAATGTAATCGTCTATGACGTTG
binding result: binds
